Data set [1] concerns human neuroblastoma cell line SH-SY5Y. The data set can be described thus: In vitro cytotoxicity assay (LDH), SH-SY5Y. It counts as cell-based. As to conditions: 1:1 effector to target ratio, FIG. 8B. On the procedure:
(§1) The pre-activated T cells were transduced with lentivirus stock in the presence of […] polybrene and 300 IU/mL IL-2. T cells and lentivirus were centrifuged at 1000 g, 32° C. for 1 h and placed in humidified cell culture incubator for transgene expression under suitable conditions. On day 5 or day 7 or day 10 post-transduction, transduced T cells were harvested and co-incubated with tumor cells at an effector (CAR T) to target cell ratio of 10:1 or 5:1 or 2:1 or 1:1 or 0.2:1 for 20 hours. Target cells were human neuroblastoma cell line SH-SY5Y (ATCC, #CRL-2266), human neuroblastoma cell line IMR-32 cells (ATCC, #CCL-127), or human epidermoid carcinoma cell line A-431 (ATCC, #CRL-1555). To assay the cytotoxicity of CAR T cells on tumor cells, the Cytotoxicity Detection Kit (LDH) (Roche, #11644793001) assay reagents were prepared according to manufacturer's protocol. Reaction mix was added to the cell-free supernatant of each sample to detect the LDH released from cells. Optical densities at OD492 nm and OD650 nm were measured by PHERStar Microplate Reader. Baseline LDH released from the target cell in the absence of effector cells and effector cell in the absence of target cells were subtracted from the total LDH amount. The target maximum release was obtained by adding Triton-X100 at a final concentration of 1% to target cells in the absence of effector cells at the time when the cytotoxicity assays initiated. Supernatant from target cells in the absence of effector cells was used for target minimum release. The specific cytotoxicity was calculated by the formula: % Target cell lysis=100*[(OD CAR T cell+Target cell)−(OD CAR T cell)−(OD Target cell)+(OD Buffer background)]/(OD Target Maximum release−OD Target Minimum release).
(§2) On day 5 or day 8 or day 10 post-transduction, transduced T cells were harvested and co-incubated with tumor cells at an effector (CAR T) to target cell ratio of 10:1 or 1:1 or 0.2:1 for 20 hours. To assay the cytotoxicity of CAR T cells on tumor cells, the Cytotoxicity Detection Kit (LDH) (Roche, #11644793001) was added to the culture supernatant and the specific cytotoxicity for each CAR T cell construct was measured as described in Example 6.

Data set [2] concerns human neuroblastoma cell line IMR-32. Description: In vitro cytotoxicity assay (LDH), IMR-32. It counts as cell-based. The following applies: 1:1 effector to target ratio, FIG. 8B. The protocol:
as §1, with “Supernatant from target cells in the absence of effector cells was used for target minimum release.” left out
as §2

The test system of a further data set is SH-SY5Y. The data set can be described thus: IFNγ release in co-culture with SH-SY5Y. It counts as cell-based, human. As to conditions: Example 7, co-culture with SH-SY5Y, FIG. 8D-8F. An excerpt: (§3) In addition to the cytotoxicity data above, supernatants from the in vitro co-culture assays were also collected to assess CAR T cells-induced cytokine release, e.g., release of interferon gamma (i.e., IFNγ), as another indicator of cytotoxicity, was quantified using a HTRF human IFNγ AlphaLISA kit (Perkin Elmer, #62HIFNGPEH) per manufacturer's instruction. […] No significant cytokine release were detected against GPC2-negative cell line A-431.
(§4) Supernatants from the in vitro co-culture assays were collected to assess CAR T cells-induced cytokine release, e.g., interferon gamma (i.e., IFNγ) release as described in Example 6. […] IFNγ was not induced in GPC2-negative A-431 cells. […] Cytokine release data was consistent with the in vitro cytotoxicity data.

In a further data set the test system is IMR-32. Description: IFNγ release in co-culture with IMR-32. It counts as cell-based, human. The following applies: Example 7, co-culture with IMR-32, FIG. 8D-8F.
From the text: as §3, §4

The values that follow come from patent publication US12606635B2, “Glypican-2-binding moieties, chimeric antigen receptors and uses thereof” (Nanjing Legend Biotech Co., Ltd., priority 2020, dated 2026).

B1: CAS71529VH5-BBz: humanized VHH anti-GPC2 CAR (4-1BB, CD3ζ), SEQ ID NO: 222; tested as CAR T cells (protein)
chain: MALPVTALLLPLALLLHAARPEVQLVESGGGLVQPGGSLRLSCAVSEYRYSSRYCMGWFRQAPGKGLEGVSAIDSNGSADYVDSVKGRFTISKDNSKNTLYLQMNSLRAEDTAVYYCAADHLAYDCYSGATSVFRYWGQGTLVTVSSTTTPAPRPPTPAPTIASQPLSLRPEACRPAAGGAVHTRGLDFACDIYIWAPLAGTCGVLLLSLVITLYCKRGRKKLLYIFKQPFMRPVQTTQEEDGCSCRFPEEEEGGCELRVKFSRSADAPAYKQGQNQLYNELNLGRREEYDVLDKRRGRDPEMGGKPRRKNPQEGLYNELQKDKMAEAYSEIGMKGERRRGKGHDGLYQGLSTATKDTYDALHMQALPPR
modifications: expressed in CAR T cells; CAS71529VH5-BBz
In the case of B1, the “cytotoxicity against SH-SY5Y” value in data set [1] is given as “less than 30%”. In addition, the “cytotoxicity against IMR-32” value in data set [2] is recorded as “less than 30%”. The IFNγ release result in the data set on SH-SY5Y and in the data set on IMR-32 was “high levels of IFNγ” in each case.
